Data set [1] relates to Fur (ferric uptake regulator) (Helicobacter pylori (strain G27?)). Kind of data set: DNase I footprinting (protection). The following applies: Footprinting: 15 fmol probe in 50 ul, 300 ng salmon sperm DNA, room temperature, 150 uM Fe2+ or dipyridyl, competitive buffer 20 mM HEPES pH 7.85, 50 mM KCl, 0.
Data set [2] has the same test system. Kind of data set: DNase I footprinting (full protection). The settings on record: apo (150 uM 2,2'-dipyridyl); site fOPII; Footprinting: 15 fmol probe in 50 ul, 300 ng salmon sperm DNA, room temperature, 150 uM Fe2+ or dipyridyl; competitive buffer 20 mM HEPES pH 7.85, 50 mM KCl, 0.

Regarding ParsR wild-type footprinting probe, the binding signal in data set [1] (apo (150 uM 2,2'-dipyridyl), site fOPI) was found to be 75 nM; in data set [1] (holo (150 uM Fe2+), site fOPI), 12 nM; in data set [1] (holo (150 uM Fe2+), site fOPIII (low affinity)), 125 nM; in data set [2], 30 nM.

The record behind these values is paper PMC5007355.
